Bounds are passed on as bounds.

Consider one molecule from patent US20240166737A1.

One assay deals with recombinant CD3 (UniProt P07766). Put plainly: SPR. For orientation: Surface plasmon resonance follows binding to a sensor surface in real time, without labels.
Assay [1] concerns the target CD3 epsilon on human T-cells (human) (UniProt P07766). Put plainly: T cell binding.

Chain of recombinant CD3 (P07766 23-126): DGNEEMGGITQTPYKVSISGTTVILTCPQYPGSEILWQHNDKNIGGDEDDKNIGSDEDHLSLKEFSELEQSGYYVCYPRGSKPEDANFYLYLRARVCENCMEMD
Chain of CD3 epsilon on human T-cells (human) (P07766 23-207 limits assumed): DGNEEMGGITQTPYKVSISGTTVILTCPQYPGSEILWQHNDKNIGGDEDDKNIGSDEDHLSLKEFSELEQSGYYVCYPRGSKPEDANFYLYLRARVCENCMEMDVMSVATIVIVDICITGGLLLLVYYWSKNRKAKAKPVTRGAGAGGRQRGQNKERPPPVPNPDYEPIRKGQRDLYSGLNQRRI

B1: CD3B450-LH-ScFv (scFv, V domains shown, not shown: small tags and cut ends)
VH: QVQLQQSGPGLVKPSQTLSLTCAISGDSVFNNNAAWSWIRQSPSRGLEWLGRTYYRSKWLYDYAVSVKSRITINPDTSKNQFSLQLNSVTPEDTAVYYCARGYSSSFDYWGQGTLVTVSS
VL: QSALTQPASVSGSPGQSITISCTGTSSNIGTYKFVSWYQQHPGKAPKVMIYEVSKRPSGVSNRFSGSKSGNTASLTISGLQAEDEADYYCVSYAGSGTLLFGGGTKLTVL
For orientation: Kd means the constant that tells how readily two partners part at equilibrium. For orientation: EC50 means the midpoint of the concentration-response curve. B1: in the assay with recombinant CD3, the Kd fell in the range of 50 to 100 nM. This molecule also had an EC50 in assay [1] of more than 300 nM.
